Laboratory results reported in patent US10815297B2, “Antagonists of IL17C for the treatment of inflammatory disorders” (MorphoSys AG, priority 2011, dated 2020).

Tests used:
[1] = system: TS-exposed mice (C57BL/6J), pulmonary inflammation; experiment: Tobacco smoke model, cells recovered in bronchoalveolar lavage; type: in vivo, mouse
Description: The response consisted of significant increases in the numbers of macrophages, epithelial cells, neutrophils and lymphocytes recovered in BAL.
Vehicle (PBS), MOR12743 and MOR03207 were administered i.p., 1 h prior to TS-exposure on days 1, 4, 7 and 10 of the study. Roflumilast was administered p.o., 1 h prior to each TS-exposure.
In this exposure protocol, mice were exposed in groups of 5 in clear polycarbonate chambers (27 cm×16 cm×12 cm). The TS from ‘Marlboro 100’ cigarettes was allowed to enter the exposure chambers at a flow rate of 100 mL/min. In order to minimise any potential problems caused by repeated exposure to a high level of TS, the exposure period to TS was increased initially from 25 minutes at the start of the study (day 1) to a maximum of 45 minutes on day 3. The exposure schedule used in this study was as follows:
The trachea was cannulated using a 10 mm long Luer fitting stainless steel cannula. Phosphate buffered saline (PBS) was used as the lavage fluid. A volume of 0.4 mL was gently instilled and withdrawn 3 times using a 1 mL syringe and then placed in an Eppendorf tube and kept on ice prior to subsequent determinations.
Lavage fluid was separated from cells by centrifugation (6 min at 3400 rpm, RCF=3070×g—‘Eppendorf Mini Spin’) and the supernatant decanted and frozen for possible subsequent analysis. The cell pellet was re-suspended in a known volume of PBS and total cell numbers calculated by counting a stained (Turks stain) aliquot under a microscope using a haemocytometer.
The residual cell pellet was diluted to approximately 10^5 cells per mL. A volume of 500 μl was placed in the funnel of a cytospin slide and centrifuged for 8 min at 800 rpm, RCF=72.26×g (Shandon Cytospin 3). The slide was air-dried and stained using Wrights/Giemsa stain as per the proprietary instructions. When dried and cover-slipped, differential cell-counts were performed using light microscopy. Approximately 400 cells were counted for each slide. Cells were identified using standard morphometric techniques.
In this study, 4 groups of mice were subjected to daily TS-exposure for 11 days and were sacrificed on the 12th day, 24 h after the final TS-exposure. Three groups received either vehicle (D-PBS), MOR12743 or MOR03207, i.p., 1 h prior to TS-exposure on days 1, 4, 7 and 10 of the study. One group received Roflumilast, p.o., 1 h prior to each TS-exposure. A further group was exposed to air for 11 consecutive days and sacrificed on the 12th day, 24 h after the final air-exposure. This group received vehicle (D-PBS), i.p., 1 h prior to exposure on days 1, 4, 7 and 10 of the study. For all groups n=10.
All mice were killed on day 12, by intra-peritoneal barbiturate anaesthetic overdose, 24 h after final exposure to air or TS. A blood sample was taken over heparin from the sub-clavian vein and the plasma separated by centrifugation and stored at −40° C. A BAL was performed using 0.4 mL of phosphate buffered saline (PBS). Cells recovered from the BAL were used for the total cell and differential cell counts. The BAL supernatants and remaining cell pellet were stored at −40° C. and −80° C. respectively for possible future analysis. Following BAL, the cannula was left tied in place. The heart and lungs were removed after gently opening the thorax and cutting down either side of the sternum and ribs. The left lobe was tied off, removed, snap-frozen and stored at −80° C. The right lobe was inflated with 10% phosphate buffered formalin (PBF) to a pressure of 18 cm of PBF for 20 minutes. The trachea was then ligated below the cannula and the cannula removed. The heart, lung & trachea were immersed in PBF.
The data were therefore initially subjected to a one-way analysis of variance test (ANOVA), followed by a Bonferroni correction for multiple comparisons in order to test for statistically significant differences between treatment groups. A “p” value of <0.05 was considered to be statistically significant. […]

[2] = system: BALB/c female mice, LPS-induced acute lung neutrophilia; experiment: Intranasal instillation of LPS, mouse model of acute lung neutrophilia; type: in vivo; settings: single treatment 5 mg/kg i.p. 24 hours before LPS instillation; BAL 24 hours after LPS
Description: Two independent studies were conducted with one negative mAb and two positive mAbs in the intranasal instillation of Lipopolysaccharide (LPS) mouse model of acute lung neutrophilia, a model which mimics some relevant aspects of COPD (Chronic Obstructive Pulmonary Disease). The effects were measured by Broncho Alveolar Lavage (BAL) inflammatory cell counting.
Several groups of mice were treated with different antibodies and Dexamethasone and compared to the mice subjected to LPS only.
BALB/c female mice from Harlan (France) were used in the study. Mice weight was around 20 g.
Mice were anesthetized by isoflurane inhalation. During the breathing, LPS was instilled intranasally. After 24 h, mice were anesthetized intra-peritoneally (IP) and Broncho Alveolar Lavage procedure was performed. Mice were anesthetized by injection of anaesthetic solution of 0.1 mL per 10 g of the mouse weight. The anaesthetic solution was composed of 18 ml 0.9% NaCl, 0.5 mL xylazine (5 mg/Kg) and 1.5 mL ketamine (75 mg/Kg).
The trachea was exposed through midline incision and canulated (with a mice catheter). BAL was performed twice using 1 mL of sterile PBS buffer. […] The cells were counted using a cell counter (Vet abc, France). […]
For all groups, BAL was performed 24 hours after LPS administration and cell counts were measured.
The results were analyzed using Student t-test. […]

[3] = 5 mg/kg i.p. on days 1, 4, 7 & 10

B1: MOR12743: anti-mouse IL17C HuCAL antibody; CDRs SEQ ID NO: 31-36, VL 37, VH 38; human/mouse chimeric IgG2a (antibody, V domains shown)
VH: QVQLVQSGAEVKKPGASVKVSCKASGYTFTSNFIHWVRQAPGQGLEWMGWISPYNGDTNYAQKFQGRVTMTRDTSISTAYMELSRLRSEDTAVYYCARESVYYGSDYGYNGMDIWGQGTLVTVSS
VL: DIELTQPPSVSVSPGQTASITCSGDNLGEEYVSWYQQKPGQAPVLVIYDDTKRPSGIPERFSGSNSGNTATLTISGTQAEDEADYYCASWDLWSVEVFGGGTKLTVLGQ
modifications: mouse IgG2a constant regions; VH; VL
Inhibition of epithelial cells in BAL [1, 3]: 52%
Inhibition of lymphocytes in BAL [1, 3]: 24%
Inhibition of macrophages in BAL [1, 3]: 6%
Inhibition of neutrophils in BAL [1, 3]: 48%
Inhibition of total cells in BAL ([1]; 5 mg/kg i.p. on days 1, 4, 7 & 10, 1 h prior to TS-exposure, BAL 24 h after last of 11 daily exposures): 26%
inhibition of the recruitment of inflammatory cells into the BALF [2]: inhibited significantly
